Assay results reported in patent US6610535B1, “Progenitor cells and methods and uses related thereto” (ES Cell International Pte Ltd., priority 2000, dated 2003).
Entries after “also recorded” stand apart in the source; their conditions may differ.

Legend:
[1] = test system: pancreatic duct epithelial cells; test: PNA-FITC lectin histochemistry of pancreas; assay type: binding, rat
Protocol: Paraffin sections of adult human pancreas, adult rat pancreas, embryonic rat pancreas, or cryosections of adult mouse pancreas were used. Alternatively, Time 0 duct or cultured duct preparations from 2 week old rat pancreas were examined, with or without paraformaldehyde fixation. PNA-FITC was used usually at 1:250 dilution in PBS or DMEM/HEPES medium and incubated for 1 hr to overnight at 4° C., then washed and mounted under VectaShield mounting medium containing DAPI. Cells stained without prior fixation were post-fixed before addition of mounting medium.

T0 duct prep = test: PNA-FITC FACS of dispersed duct cells; assay type: binding, rat; details: by FACS analysis
Protocol: PNA-FITC was diluted 1:250 in sterile wash buffer (Ca++ Mg++-free PBS containing 1% FBS). Dispersed live cells (approx. 2×10^6 cells) were spun down and resuspended in 100 μl of lectin and incubated for 30-45 min at 4° C. Cells were then washed twice with sterile wash buffer, resuspended in 2 ml of Iscoveís modified DMEM containing 5% FBS, Pen/Strep, 1 mM glutamine, and held on ice until run on the FACSVantage. Standard FACS procedures were used.

B1: PNA: plant lectin that binds to galactosyl (β-1,3) N-acetyl galactosamine (protein, UniProt P02872 24-273, looked up)
Galactose-binding lectin: AETVSFNFNSFSEGNPAINFQGDVTVLSNGNIQLTNLNKVNSVGRVLYAMPVRIWSSATGNVASFLTSFSFEMKDIKDYDPADGIIFFIAPEDTQIPAGSIGGGTLGVSDTKGAGHFVGVEFDTYSNSEYNDPPTDHVGIDVNSVDSVKTVPWNSVSGAVVKVTVIYDSSTKTLSVAVTNDNGDITTIAQVVDLKAKLPERVKFGFSASGSLGGRQIHLIRSWSFTSTLITTTRRSIDNNEKKIMNMASA
- labelling of the major pancreatic duct (common bile duct, CBD) [1]: does not mark
- labelling of blood vessels or stromal cells ([1]; by immunohistochemistry): does not mark
- labelling of islet cells ([1]; rat): did NOT label; also recorded: does NOT mark
- labelling of duct epithelial cells ([1]; rat pancreas): DID label; also recorded: marks the single layer of epithelial cells
- PNA-positive fraction of T0 duct prep (T0 duct prep): 5-15%
